Source: patent publication US10358467B2, “Therapeutic targets for cancer progression” (The Regents of the University of California, priority 2015, dated 2019)

Columns and labels:
[1] = test system: Akt; assay: Akt phosphorylation (pAkt S473) immunoblot in HeLa cells; type: cell-based; conditions: 10 μM, 6 h, DAPLE-depleted HeLa cells transfected with myc-DAPLE WT
Protocol: For immunoblotting, protein samples were separated by SDS-PAGE and transferred to PVDF membranes (Millipore). Membranes were blocked with PBS supplemented with 5% nonfat milk (or with 5% BSA when probing for phosphorylated proteins) before incubation with primary antibodies. Infrared imaging with two-color detection and band densitometry quantifications were performed using a Li-Cor Odyssey imaging system exactly as done previously (Garcia-Marcos et al, 2011a; Garcia-Marcos et al, 2010; Garcia-Marcos et al, 2012; Garcia-Marcos et al, 2011b; Ghosh et al, 2010). All Odyssey images were processed using Image J software (NIH) and assembled into figure panels using Photoshop and Illustrator software (Adobe).

[2] = test system: Rac1; assay: Rac1 activity pulldown assay with GST-PBD in HeLa cells; type: cell-based; conditions: 10 μM, 6 h, DAPLE-depleted HeLa cells transfected with myc-DAPLE WT
Protocol: Rac1 activity in HeLa cells lines was monitored using GST-tagged PAK1-binding domain (PBD; pGEX-PBD) as described previously (Benard & Bokoch, 2002). Briefly, Escherichia coli strain BL21 bacteria transformed with pGEX-PBD were grown at 37° C. and GST-PBD expression was induced at OD600 with 1 mM IPTG for 3 h at 37° C. with shaking. Bacterial lysates were prepared as described above in protein purification section, cleared of debris by centrifugation and subsequently aliquots of lysates were stored at −80° C. until use. Aliquots of bacterial lysates were thawed, cleared of precipitated proteins by centrifugation at 14,000×g for 20 min, and the cleared supernatant was subsequently incubated with glutathione beads overnight at 4° C. with constant tumbling to prepare purified bead-bound GST-PBD freshly for each assay.
To analyze the role of DAPLE in regulation of Rac1 activity HeLa cells were used. For assays done on cells at steady-state, cells were maintained overnight in a media containing 2% or 0.2% FBS prior to lysis. […]

[3] = molecular target: T1, Gαi3 (Rattus norvegicus, UniProt P08753); assay: GST pulldown of His-DAPLE-CT with GST-Gαi3; type: binding
T1 construct: made in house; host or cells: E. coli BL21 (DE3)
Protocol: Purified GST-Gαi3 or GST alone (5 μg) were immobilized on glutathione-Sepharose beads and incubated with binding buffer [50 mM Tris-HCl (pH 7.4), 100 mM NaCl, 0.4% (v:v) Nonidet P-40, 10 mM MgCl2, 5 mM EDTA, 30 μM GDP, 2 mM DTT, protease inhibitor mixture] for 90 min at room temperature as described before (Garcia-Marcos et al, 2011a; Ghosh et al, 2010; Ghosh et al, 2008; Lin et al, 2011). Lysates (˜250 μg) of Cos7 cells expressing appropriate myc-DAPLE constructs or purified His-DAPLE-CT (aa 1650-2028) protein (3 μg) were added to each tube, and binding reactions were carried out for 4 h at 4° C. with constant tumbling in binding buffer [50 mM Tris-HCl (pH 7.4), 100 mM NaCl, 0.4% (v:v) Nonidet P-40, 10 mM MgCl2, 5 mM EDTA, 30 μM GDP, 2 mM DTT]. Beads were washed (4×) with 1 mL of wash buffer [4.3 mM Na2HPO4, 1.4 mM KH2PO4 (pH 7.4), 137 mM NaCl, 2.7 mM KCl, 0.1% (v:v) Tween 20, 10 mM MgCl2, 5 mM EDTA, 30 μM GDP, 2 mM DTT] and boiled in Laemmli's sample buffer. In some experiments the ‘active’ conformation of the G protein was stabilized by replacing GDP in the binding and wash buffers with 30 μM GTPγS or a mixture of 30 μM GDP/30 μM AlCl3/10 mM NaF. Immunoblot quantification was performed by infrared imaging following the manufacturer's protocols using an Odyssey imaging system (Li-Cor Biosciences).

[4] = molecular target: T2, His-Gαi3 (Rattus norvegicus, UniProt P08753); assay: Steady-state GTPase assay; type: biochemical; conditions: in vitro assays
T2 construct: His; made in house; host or cells: E. coli BL21 (DE3)
Protocol: Under the experimental conditions of steady-state GTPase assays, GTP hydrolysis occurs as a two-step reaction, i.e., 1) GDP is released from the G protein and exchanged for GTP, and 2) the GTP loaded is hydrolyzed. Nucleotide exchange is the rate limiting step in this process because it is ˜50-100 times slower than GTP hydrolysis by Gαi subunits (Mukhopadhyay & Ross, 2002). Thus, the steady-state GTPase activity reflects the rate of nucleotide exchange, and was performed as described previously (Garcia-Marcos et al, 2010; Garcia-Marcos et al, 2012; Garcia-Marcos et al, 2011b). Briefly, His-Gαi3 (100 nM) was preincubated with different concentrations of His-DAPLE-CT (aa 1650-2028) for 15 min at 30° C. in assay buffer [20 mM Na-HEPES, pH 8, 100 mM NaCl, 1 mM EDTA, 2 mM MgCl2, 1 mM DTT, 0.05% (w:v) C12E10]. GTPase reactions were initiated at 30° C. by adding an equal volume of assay buffer containing 1 μM [γ-^32P]GTP (˜50 c.p.m/fmol). […] Samples were then centrifuged for 10 min at 10,000×g, and 500 μl of the resultant supernatant were scintillation counted to quantify released [^32P]Pi. For the time course experiments, data was expressed as raw c.p.m. For the dose-dependence curve experiments, the background [^32P]Pi detected at 15 min in the absence of G protein was subtracted from each reaction and data expressed as percentage of the Pi produced by His-Gαi3 in the absence of His-DAPLE-CT.

[5] = molecular target: T3, Gαo (Rattus norvegicus, UniProt P59215); assay: GST pulldown of His-DAPLE-CT with GST-Gαo; type: binding
T3 construct: made in house; host or cells: E. coli BL21 (DE3)

[6] = molecular target: T4, Gαi2 (Rattus norvegicus, UniProt P04897); assay: GST pulldown of His-DAPLE-CT with GST-Gαi2; type: binding; conditions: compared to Gαi1 and Gαi3
T4 construct: made in house; host or cells: E. coli BL21 (DE3)

[7] = molecular target: T5, GST-FZD7R-CT (Homo sapiens, UniProt O75084); assay: GST-FZD7-CT pulldown of His-Gαi3; type: binding; conditions: His-Gαi3 preloaded with GDP, in the presence of DAPLE-CT
T5 construct: the GST-tagged cytoplasmic tail of FZD7R; made in house; host or cells: bacteria (E. coli BL21 (DE3)); plasmid a gift of R. Yao
Protocol: GST-FZD7-CT and GST-PBD constructs were immobilized on glutathione-Sepharose beads directly from bacterial lysates by overnight incubation at 4° C. with constant tumbling. Next morning, GST-FZD7-CT immobilized on glutathione beads were washed and subsequently incubated with His-tagged DAPLE-CT or Gαi3 proteins at 4° C. with constant tumbling. Washes and immunoblotting were performed as previously.

[8] = molecular target: T6, GST-Gαi3·Gβγ preformed complexes (Rattus norvegicus, UniProt P08753); assay: Gβγ displacement assay; type: binding; conditions: 0.05-1 μM WT or 1 μM F1675A
T6 construct: made in house; host or cells: E. coli BL21 (DE3) for GST-Gαi3; Gβγ endogenous from HEK293T lysate
Protocol: This assay was performed as described previously (Garcia-Marcos et al, 2009). Briefly, GST alone or GST-Gαi3 proteins immobilized on glutathione-agarose beads were incubated overnight at 4° C. with HEK293T cell lysates in binding buffer [50 mM Tris-HCl, pH 7.4, 100 mM NaCl, 0.4% (v:v) NP-40, 10 mM MgCl2, 5 mM EDTA, 2 mM DTT, protease inhibitor cocktail supplemented with 30 μM GDP]. Unbound Gβγ-subunits were washed twice with the same buffer and proteins bound to the glutathione-agarose beads divided into equal aliquots containing ˜5 μg (˜0.4 μM) GST-fusion proteins. Aliquots were incubated with increasing concentrations (0.05-1 μM) of purified His-DAPLE-CT (1650-2028) wild-type or 1 μM His-DAPLE-CT F1675A in binding buffer supplemented with GDP (˜200 μl) for 5 h at 4° C. Glutathione-agarose beads were washed and bound proteins eluted by boiling in Laemmli sample buffer and separated by SDS-PAGE.

[9] = molecular target: T7, Gαi1 (Rattus norvegicus, UniProt P10824); assay: GST pulldown of His-DAPLE-CT with GST-Gαi1; type: binding
T7 construct: made in house; host or cells: E. coli BL21 (DE3)

[10] = molecular target: T2, His-Gαi3; assay: GTPγS binding assay; type: biochemical; conditions: 0-2 μM, 15 min
Protocol: GTPγS binding was measured using a filter binding method as described previously (Garcia-Marcos et al, 2010; Garcia-Marcos et al, 2011b). His-Gαi3 (100 nM) was preincubated with different concentrations of His-DAPLE-CT (aa 1650-2028) for 15 min at 30° C. in assay buffer [20 mM Na-HEPES, pH 8, 100 mM NaCl, 1 mM EDTA, 25 mM MgCl2, 1 mM DTT, 0.05% (w:v) C12E10]. Reactions were initiated at 30° C. by adding an equal volume of assay buffer containing 1 μM [^35S] GTPγS (˜50 c.p.m/fmol). Duplicate aliquots (25 μl) were removed at different time points, and binding of radioactive nucleotide was stopped by addition of 3 ml, ice-cold wash buffer (20 mM Tris-HCl, pH 8.0, 100 mM NaCl, 25 mM MgCl2). The quenched reactions were rapidly passed through BA-85 nitrocellulose filters (GE Healthcare) and washed with 4 ml wash buffer. Filters were dried and subjected to liquid scintillation counting. To determine the specific nucleotide binding, the background [^35S]GTPγS detected in the absence of G protein was subtracted from each reaction and data expressed as percentage of the [^35S] GTPγS bound by His-Gαi3 in the absence of His-DAPLE-CT.

T3 sequence (P59215 whole entry): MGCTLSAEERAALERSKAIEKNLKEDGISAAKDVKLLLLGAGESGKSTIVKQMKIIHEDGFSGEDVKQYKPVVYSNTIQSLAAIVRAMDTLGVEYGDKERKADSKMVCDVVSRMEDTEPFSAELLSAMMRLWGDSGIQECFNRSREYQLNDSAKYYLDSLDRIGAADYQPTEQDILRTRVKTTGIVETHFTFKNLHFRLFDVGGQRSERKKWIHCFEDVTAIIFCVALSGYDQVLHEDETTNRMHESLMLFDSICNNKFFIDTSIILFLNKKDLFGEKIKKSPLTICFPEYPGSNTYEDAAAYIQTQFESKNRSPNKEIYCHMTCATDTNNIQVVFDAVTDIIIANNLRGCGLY
T4 sequence (P04897 whole entry): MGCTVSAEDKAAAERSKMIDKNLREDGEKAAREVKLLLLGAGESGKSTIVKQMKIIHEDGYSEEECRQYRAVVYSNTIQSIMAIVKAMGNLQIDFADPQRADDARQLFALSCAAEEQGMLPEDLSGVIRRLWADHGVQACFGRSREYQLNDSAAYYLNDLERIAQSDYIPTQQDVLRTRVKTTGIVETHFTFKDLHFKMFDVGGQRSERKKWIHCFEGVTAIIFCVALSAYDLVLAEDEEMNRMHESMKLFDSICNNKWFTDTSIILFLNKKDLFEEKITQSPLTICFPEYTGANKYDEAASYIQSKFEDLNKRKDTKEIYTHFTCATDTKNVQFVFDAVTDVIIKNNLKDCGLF
T7 sequence (P10824 whole entry): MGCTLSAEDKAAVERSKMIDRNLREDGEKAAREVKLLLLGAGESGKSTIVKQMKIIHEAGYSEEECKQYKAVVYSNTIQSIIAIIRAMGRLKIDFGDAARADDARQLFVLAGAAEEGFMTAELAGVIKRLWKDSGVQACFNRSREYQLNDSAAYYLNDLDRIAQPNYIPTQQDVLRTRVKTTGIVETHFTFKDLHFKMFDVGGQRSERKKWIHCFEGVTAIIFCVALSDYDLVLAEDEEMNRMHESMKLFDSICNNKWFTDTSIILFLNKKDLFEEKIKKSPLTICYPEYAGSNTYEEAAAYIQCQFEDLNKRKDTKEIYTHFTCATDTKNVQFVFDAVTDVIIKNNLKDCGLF

binding to Gαi3 [3]	GEF activity, activation of nucleotide exchange [4]	binding to Gαo [5]	binding to Gαi2 [6]	increase of Gαi3 binding to GST-FZD7R-CT [7] [fold]	displacement of Gβγ from pre-assembled complex with GST-Gαi3 [8]	binding to Gαi1 [9]	Molecule	Akt activity [1]	Rac1 activity [2]	initial rate of nucleotide (GTPγS) binding by His-Gαi3 [10]
–	–	–	–	–	–	–	O=C1OC2(c3ccccc31)c1ccc(O)c(O)c1Oc1c2ccc(O)c1O [Gallein]	effectively inhibited	effectively inhibited	–
interacts	2.5-3 fold	not with Gαo	partially reduced	~5	displaced	interacts	His-DAPLE-CT: purified His-tagged DAPLE C-terminus (aa 1650-2028, containing the GBA motif) (protein, listed as Homo sapiens, His tag) GTAPPYVGVRPCSASPSSEMVTLEEFLEESNRSSPTHDTPSCRDDLLSDYFRKASDPPAIGGQPGPPAKKEGAKMPTNFVAPTVKMAAPTSEGRPLKPGQYVKPNFRLTEAEAPPSVAPRQAQPPQSLSLGRPRQAPVPPASHAPASRSASLSRAFSLASADLLRASGPEACKQESPQKLGAPEALGGRETGSHTLQSPAPPSSHSLARERTPLVGKAGSSCQGPGPRSRPLDTRRFSLAPPKEERLAPLHQSATAPAIATAGAGAAAAGSGSNSQLLHFSPAAAPAARTKPKAPPRSGEVATITPVRAGLSLSEGDGVPGQGCSEGLPAKSPGRSPDLAPHLGRALEDCSRGSVSKSSPASPEPGGDPQTVWYEYGCV	–	–	increased
